This passage reports Kd results from article PMC12513289 (The Journal of Biological Chemistry, 2025).

This data set concerns the molecule itself. Kind of data set: mass photometry, R534* homodimer.

B1: human AsnRS R534∗ (ΔR534-P548), N-terminal 6xHis tag (enzyme, UniProt O43776 1-533, looked up)
chain: MVLAELYVSDREGSDATGDGTKEKPFKTGLKALMTVGKEPFPTIYVDSQKENERWNVISKSQLKNIKKMWHREQMKSESREKKEAEDSLRREKNLEEAKKITIKNDPSLPEPKCVKIGALEGYRGQRVKVFGWVHRLRRQGKNLMFLVLRDGTGYLQCVLADELCQCYNGVLLSTESSVAVYGMLNLTPKGKQAPGGHELSCDFWELIGLAPAGGADNLINEESDVDVQLNNRHMMIRGENMSKILKARSMVTRCFRDHFFDRGYYEVTPPTLVQTQVEGGATLFKLDYFGEEAFLTQSSQLYLETCLPALGDVFCIAQSYRAEQSRTRRHLAEYTHVEAECPFLTFDDLLNRLEDLVCDVVDRILKSPAGSIVHELNPNFQPPKRPFKRMNYSDAIVWLKEHDVKKEDGTFYEFGEDIPEAPERLMTDTINEPILLCRFPVEIKSFYMQRCPEDSRLTESVDVLMPNVGEIVGGSMRIFDSEEILAGYKREGIDPTPYYWYTDQRKYGTCPHGGYGLGLERFLTWILNRYHI
notes: also called His-R534∗; R534∗ mutant; source: E. coli BL21(DE3) or BL21 ClearColi, purified (Ni-NTA, heparin, SEC); not shown: His6, N-terminal, kept
What is called Kd is a measure of binding affinity in units of concentration. A lower Kd goes with higher affinity. For the protein B1, the Kd is 0.0544 µM.
